Earlier results, collected in PMC2679154.

Target: IGF-IR (Homo sapiens) (UniProt P08069)
Chain of UniProt P08069 (P08069 31-736, chain 1 of 2): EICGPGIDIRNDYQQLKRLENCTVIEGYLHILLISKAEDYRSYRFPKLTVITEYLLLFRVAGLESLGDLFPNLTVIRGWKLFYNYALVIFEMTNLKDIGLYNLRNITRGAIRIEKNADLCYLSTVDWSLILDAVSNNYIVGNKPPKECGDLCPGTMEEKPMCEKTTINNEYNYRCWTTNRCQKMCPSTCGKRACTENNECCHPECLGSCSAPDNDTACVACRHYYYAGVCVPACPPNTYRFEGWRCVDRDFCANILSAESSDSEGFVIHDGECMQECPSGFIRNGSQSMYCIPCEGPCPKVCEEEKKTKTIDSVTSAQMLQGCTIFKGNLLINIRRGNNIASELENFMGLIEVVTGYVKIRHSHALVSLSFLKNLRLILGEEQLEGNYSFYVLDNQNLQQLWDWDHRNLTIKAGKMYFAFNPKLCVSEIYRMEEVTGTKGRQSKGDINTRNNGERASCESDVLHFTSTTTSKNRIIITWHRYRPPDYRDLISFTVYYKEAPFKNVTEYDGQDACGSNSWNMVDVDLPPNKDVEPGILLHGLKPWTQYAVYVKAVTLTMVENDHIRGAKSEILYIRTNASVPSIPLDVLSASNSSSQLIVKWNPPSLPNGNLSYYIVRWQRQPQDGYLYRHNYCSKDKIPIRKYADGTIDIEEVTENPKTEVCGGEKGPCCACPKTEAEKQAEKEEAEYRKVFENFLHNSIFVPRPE
Chain of UniProt P08069 (P08069 741-935, chain 2 of 2): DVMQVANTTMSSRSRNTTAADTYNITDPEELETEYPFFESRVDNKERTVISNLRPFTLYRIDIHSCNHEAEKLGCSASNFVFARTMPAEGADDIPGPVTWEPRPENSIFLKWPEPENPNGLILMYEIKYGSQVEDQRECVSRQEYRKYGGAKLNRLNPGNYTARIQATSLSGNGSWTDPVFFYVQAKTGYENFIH

Kd: 100 nM
Substance: insulin (from UniProt P01308)
